We go through seven molecules from PMC11295463, “Prefoldins are novel regulators of the unfolded protein response in artemisinin resistant Plasmodium falciparum malaria [image fx3.gif]” (The Journal of Biological Chemistry, 2024).

B1: recombinant PfPFD3 (6x-His-PfPFD3) (natural protein)
chain: MSFDDLTDNTKSVRNIPGAKFIEHVTEFLQNKNEESILRLARELLLKYKFMEHAFVSRQINTQKKIPELKDALRVVQLLEKRKKIKEKKNLETFFPVEESLYARGIVQKTDKILLWLGANVMVEFPFDEATDLLNQHLERAINLSQEMDNELLWLHEQITTTEINISRIHNYIELKKGMMGKEVDKKTEQVN
modifications: RED-NHS dye label where it was the labelled protein in MST
notes: Prefoldin subunit 3 of P. falciparum 3D7, PF3D7_0718500; CDS amplified from Pf3D7 cDNA; Resolved at 24 kDa on SDS-PAGE; Unlabelled when titrated onto labelled PfPFD5; also called rPfPFD3; Prefoldin subunit 3; source: E. coli BL21 (λDE3), pET-28a(+), purified (Ni-NTA)
B5: recombinant PfPFD6 (6x-His-PfPFD6) (natural protein)
chain: MSQEKISEIIKDISALKTSCEKLNSQLDELITQKVENEMLLEEVKVLEDDSVLHKLVGLVLVKEEKSKCYDTISRRLQYITGEIENRKKVITNSEEKLRKLFSDLEAHAGQRKIPVPQA
notes: Prefoldin subunit 6 of P. falciparum 3D7, PF3D7_0512000; CDS amplified from Pf3D7 cDNA; Resolved at 16 kDa on SDS-PAGE; also called rPfPFD6; Prefoldin subunit 6; source: E. coli BL21 (λDE3), pET-28a(+), purified (Ni-NTA)

Experiment [1] deals with T1, PfPFD3 (Prefoldin subunit 3, PF3D7_0718500) (Plasmodium falciparum, UniProt Q8IBR6).
T1 construct: recombinant 6x-His-PfPFD3 (CDS in pET-28a(+)), RED-NHS labelled; with PfPFD1 (PF3D7_1107500)
Kind of experiment: competitive microscale thermophoresis: labelled PfPFD3-PfPFD1 complex titrated with BPD. In kind it is binding.

For experiment [2], the target named is T2, recombinant PfPFD5 (6x-His-PfPFD5) (P. falciparum 3D7, UniProt Q8II82 1-248, RED-NHS dye label (labelled protein in MST)).
T2 construct: Prefoldin subunit 5 of P. falciparum 3D7, PF3D7_1128100; CDS amplified from Pf3D7 cDNA; Resolved at 30 kDa on SDS-PAGE; also called rPfPFD5; Prefoldin subunit 5; source: E. coli BL21 (λDE3), pET-28a(+), purified (Ni-NTA)
T2 sequence: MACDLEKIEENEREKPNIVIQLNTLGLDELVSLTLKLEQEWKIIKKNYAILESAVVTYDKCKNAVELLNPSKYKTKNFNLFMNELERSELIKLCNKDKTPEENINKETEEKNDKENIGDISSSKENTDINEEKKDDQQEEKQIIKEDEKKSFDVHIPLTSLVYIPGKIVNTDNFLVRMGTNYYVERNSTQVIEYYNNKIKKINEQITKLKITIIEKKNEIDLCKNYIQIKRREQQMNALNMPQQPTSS
Kind of experiment: MST; Monolith NT.115; PfPFD3 or PfPFD5 labelled with RED-NHS dye, titrated with the other PfPFD subunits; 1× PBS pH 7.5, 0.01% tween-20; 10 min at room temperature; steady-state analysis. The conditions noted are these: both partners purified.

The target in experiment [3] is B1. The description is as above. To be noted: both partners purified.
Experiment [4] concerns the target B5. Kind of experiment: SPR; AutoLab ESPRIT; recombinant PfK13 (20 μM) immobilised on a gold chip by amine coupling; PfPFD6 injected at 25 nM to 5 μM; PBS; two-state conformational change model, KD by the Integrated Rate Law equation. To be noted: both partners purified.

With `OC(CCN1CCCCC1)(c1ccccc1)C1CC2C=CC1C2` (centres unmarked) [BPD, 1-{bicyclo[2.2.1]hept-5-en-2-yl}-1-phenyl-3-(piperidin-1-yl)propan-1-ol], the affinity in experiment [1], expressed as Kd, was 1990 nM. Consider B1, for which, in experiment [2], the Kd is 1340 nM.

B2: recombinant PfPFD1 (6x-His-PfPFD1) (natural protein)
chain: MSNLYDILGKAVINKEKKDEFQNLILKSEGFIDDVLHEKLRERQKKRDEILQDLFDMEILIENLKLFVNMKDKSEVETLTSLGCDSYVYADIINKNKIFIQLGYEFYLEMTLEEAIKFLKKKINLYEEKLSYWNKQISHVKAHIQILMRAISNLT
notes: Prefoldin subunit 1 of P. falciparum 3D7, PF3D7_1107500; CDS amplified from Pf3D7 cDNA; Resolved at 20 kDa on SDS-PAGE; also called rPfPFD1; Prefoldin subunit 1; source: E. coli BL21 (λDE3), pET-28a(+), purified (Ni-NTA)
For the molecule B2, the values for the Kd in experiment [3] and in experiment [2] were 81.6 nM and 851 nM, respectively.

B3: recombinant PfPFD2 (6x-His-PfPFD2) (natural protein)
chain: METKSNVESPNISEPKESKLTYEQIEKDRVQLVSKIEELYQDVVEHKLVLEALENVPSDRRCYRMVGEVLVERTVGEIKPALMDHKNKVEQVIAECQKQLDQKNNEISNFIKSAKAGNLPGGIINGNPSEDTNNLNDKEKKSDGIIF
notes: Prefoldin subunit 2 of P. falciparum 3D7, PF3D7_1416900; CDS amplified from Pf3D7 cDNA; Resolved at 19 kDa on SDS-PAGE; also called rPfPFD2; Prefoldin subunit 2; source: E. coli BL21 (λDE3), pET-28a(+), purified (Ni-NTA)
For the molecule B3, the Kd in experiment [3] came out at 682 nM; in experiment [2], 42.4 nM.

B4: recombinant PfK13 (∼43 kDa) (natural protein)
chain: TMIDINVGGAIFETSRHTLTQQKDSFIEKLLSGRHHVTRDKQGRIFLDRDSELFRIILNFLRNPLTIPIPKDLSESEALLKEAEFYGIKFLPFPLVFCIGGFDGVEYLNSMELLDISQQCWRMCTPMSTKKAYFGSAVLNNFLYVFGGNNYDYKALFETEVYDRLRDVWYVSSNLNIPRRNNCGVTSNGRIYCIGGYDGSSIIPNVEAYDHRMKAWVEVAPLNTPRSSAMCVAFDNKIYVIGGTNGERLNSIEVYEEKMNKWEQFPYALLEARSSGAAFNYLNQIYVVGGIDNEHNILDSVEQYQPFNKRWQFLNGVPEKKMNFGAATLSDSYIITGGENGEVLNSCHFFSPDTNEWQLGPSLLVPRFGHSVLIANI
modifications: Construct limits are not printed. The ~43 kDa band does not fit the full-length 726 aa protein (~83 kDa). It fits the BTB-Kelch propeller region, taken by convention from the BTB domain start at …
B4: the Kd in experiment [4] turned out to be 174 nM. In the case of B5, the results for the Kd in experiment [3] and in experiment [2] were 1880 nM and 324 nM, respectively.

B6: recombinant PfPFD4 (6x-His-PfPFD4) (natural protein)
chain: MGDIKQNKYDLGLDMTVDDQKKIGKFTNLHYKEPLYEHKIKMMKENIMNIDSSIDEVSLAFDSNDIMLNIGDCFFKFDLDYIEEHLEDRKSEELANLNEMELEYKTKLNEKQKLKTELYAKFGNRIDLN
notes: Prefoldin subunit 4 of P. falciparum 3D7, PF3D7_0904500; CDS amplified from Pf3D7 cDNA; Resolved at 17 kDa on SDS-PAGE; also called rPfPFD4; Prefoldin subunit 4; source: E. coli BL21 (λDE3), pET-28a(+), purified (Ni-NTA)
Take B6: the results for the Kd in experiment [3] and in experiment [2] were 11300 nM and 104 nM, respectively.
